Assays:
Assay in all cases: cell-based or functional assay
[1] = biological target: HIV-1 Env of pseudovirus X1632_S2_B10 (HIV-1)
[2] = biological target: HIV-1 Env of pseudovirus SC05_8C11_2344 (HIV-1)
[3] = biological target: HIV-1 Env of pseudovirus 0815.v3.c3 (HIV-1)
[4] = biological target: HIV-1 Env of pseudovirus 6952.v1.c20 (HIV-1)
[5] = biological target: HIV-1 Env of pseudovirus 191084 B7-19 (HIV-1)
[6] = biological target: HIV-1 Env of pseudovirus Ce2060_G9 (HIV-1)
[7] = biological target: HIV-1 Env of pseudovirus 1056_10_TA11_1826 (HIV-1)
[8] = biological target: HIV-1 Env of pseudovirus PVO.4 (HIV-1)
[9] = biological target: HIV-1 Env of pseudovirus 7030102001E5(Rev-) (HIV-1)
[10] = biological target: HIV-1 Env of pseudovirus WITO4160.33 (HIV-1)
[11] = biological target: HIV-1 Env of pseudovirus Ce1176_A3 (HIV-1)
[12] = biological target: HIV-1 Env of pseudovirus CNE17 (HIV-1)
[13] = biological target: HIV-1 Env of pseudovirus Ce2010_F5 (HIV-1)
[14] = biological target: HIV-1 Env of pseudovirus ZM249M.PL1 (HIV-1)
[15] = biological target: HIV-1 Env of pseudovirus BJOX015000.11.5 (HIV-1)
[16] = biological target: HIV-1 Env of pseudovirus CNE20 (HIV-1)
[17] = biological target: HIV-1 Env of pseudovirus HIV-16845-2.22 (HIV-1)
[18] = biological target: HIV-1 Env of pseudovirus 6041.v3.c23 (HIV-1)
[19] = biological target: HIV-1 Env of pseudovirus T251-18 (HIV-1)
[20] = biological target: HIV-1 Env of pseudovirus AC10.0.29 (HIV-1)
[21] = biological target: HIV-1 Env of pseudovirus 3365.v2.c2 (HIV-1)
[22] = biological target: HIV-1 Env of pseudovirus BJOX009000.02.4 (HIV-1)
[23] = biological target: HIV-1 Env of pseudovirus 0260.v5.c36 (HIV-1)
[24] = biological target: HIV-1 Env of pseudovirus ZM247v1(Rev-) (HIV-1)
[25] = biological target: HIV-1 Env of pseudovirus BJOX010000.06.2 (HIV-1)
[26] = biological target: HIV-1 Env of pseudovirus Q842.d12 (HIV-1)
[27] = biological target: HIV-1 Env of pseudovirus 3016.v5.c45 (HIV-1)
[28] = biological target: HIV-1 Env of pseudovirus THRO4156.18 (HIV-1)
[29] = biological target: HIV-1 Env of pseudovirus C4118.c09 (HIV-1)
[30] = biological target: HIV-1 Env of pseudovirus CNE30 (HIV-1)
[31] = biological target: HIV-1 Env of pseudovirus 6535.3 (HIV-1)
[32] = biological target: HIV-1 Env of pseudovirus ZM233M.PB6 (HIV-1)

B1: N49P22 (antibody, V domains shown)
V domain 1: HIQLLQSGPQVKKSGDTVRISCETSGYNFVDSRIHWVRQTPEKRLRWMGWINPLQGGVNYAPEFQGRIRMTRDTFIDTVYVDLSGLTPADTAYYYCARGIDGKSYPFHFWGHGTRVTVFS
V domain 2: RFALTQPASVSGSPGQTITITCAGGSVSWFHFPPGKTPRLIIYESSKRPSGVSPRFSGSQSGSTASLIISGLQSDDEGTYFCSILEFFGRGTLVTVLS
For B1, the IC50 [1] was > 50 µg/mL, the IC80 [1] was > 50 µg/mL and the MPI [1] was 0. The IC50 [2] was 0.251 µg/mL, the IC80 [2] was 2.16 µg/mL and the MPI [2] was 97. For the same binder, the IC50 [3] was 0.161 µg/mL, the IC80 [3] was 1.08 µg/mL and the MPI [3] was 98. The IC50 [4] was 33.2 µg/mL, the IC80 [4] was > 50 µg/mL and the MPI [4] was 56. It also gave an IC50 [5] of 0.343 µg/mL, an IC80 [5] of 1.64 µg/mL and an MPI [5] of 98. For the same binder, the IC50 [6] was > 50 µg/mL, the IC80 [6] was > 50 µg/mL and the MPI [6] was 19. The IC50 [7] was 2.99 µg/mL, the IC80 [7] was > 50 µg/mL and the MPI [7] was 69. It also gave an IC50 [8] of 0.433 µg/mL, an IC80 [8] of 1.49 µg/mL and an MPI [8] of 100. For the same binder, the IC50 [9] was > 50 µg/mL, the IC80 [9] was > 50 µg/mL and the MPI [9] was 21. For the same binder, the IC50 [10] was 4.86 µg/mL, the IC80 [10] was > 50 µg/mL and the MPI [10] was 74. The IC50 [11] was > 50 µg/mL, the IC80 [11] was > 50 µg/mL and the MPI [11] was 23. The IC50 [12] was 46.3 µg/mL, the IC80 [12] was > 50 µg/mL and the MPI [12] was 53. The IC50 [13] was 2.05 µg/mL, the IC80 [13] was 11.7 µg/mL and the MPI [13] was 93. The IC50 [14] was > 50 µg/mL, the IC80 [14] was > 50 µg/mL and the MPI [14] was 0. For the same binder, the IC50 [15] was 1.26 µg/mL, the IC80 [15] was 10.8 µg/mL and the MPI [15] was 89. The IC50 [16] was > 50 µg/mL, the IC80 [16] was > 50 µg/mL and the MPI [16] was 18. It also gave an IC50 [17] of 4.6 µg/mL, an IC80 [17] of 41.9 µg/mL and an MPI [17] of 87. The IC50 [18] was 7.55 µg/mL, the IC80 [18] was > 50 µg/mL and the MPI [18] was 66. It also gave an IC50 [19] of 0.58 µg/mL, an IC80 [19] of 3.09 µg/mL and an MPI [19] of 99. The IC50 [20] was > 50 µg/mL, the IC80 [20] was > 50 µg/mL and the MPI [20] was 0. It also gave an IC50 [21] of 0.254 µg/mL, an IC80 [21] of 0.857 µg/mL and an MPI [21] of 98. The IC50 [22] was 17.3 µg/mL, the IC80 [22] was > 50 µg/mL and the MPI [22] was 64. For the same binder, the IC50 [23] was 1.67 µg/mL, the IC80 [23] was 14.4 µg/mL and the MPI [23] was 93. The IC50 [24] was > 50 µg/mL, the IC80 [24] was > 50 µg/mL and the MPI [24] was 11. For the same binder, the IC50 [25] was > 50 µg/mL, the IC80 [25] was > 50 µg/mL and the MPI [25] was 0. For the same binder, the IC50 [26] was 0.079 µg/mL, the IC80 [26] was 0.359 µg/mL and the MPI [26] was 100. The IC50 [27] was > 50 µg/mL, the IC80 [27] was > 50 µg/mL and the MPI [27] was 23. For the same binder, the IC50 [28] was > 50 µg/mL, the IC80 [28] was > 50 µg/mL and the MPI [28] was 32. For the same binder, the IC50 [29] was 1.82 µg/mL, the IC80 [29] was 26.6 µg/mL and the MPI [29] was 93. The IC50 [30] was > 50 µg/mL, the IC80 [30] was > 50 µg/mL and the MPI [30] was 30. The IC50 [31] was > 50 µg/mL, the IC80 [31] was > 50 µg/mL and the MPI [31] was 5. For the same binder, the IC50 [32] was > 50 µg/mL, the IC80 [32] was > 50 µg/mL and the MPI [32] was 2.

B2: N49P23 (antibody, V domains shown)
VH: QVRLVQSGAGARKTGASMKLSCSTSGYTFTTHHGHFINWVRQARGQGLEWMGWMNPMTGQMNIEGKFQGRVTLTRDIYSDTAYMEMTRLTTGDTGTYYCARGDFGQNYPFHYWGQGSLVIVSS
VL: LSALTQPASVSGSPGQSVTISCSGTNRYLVSWYQQHPDKAPKLIIYDDNKRPSGISDRFSASRPDDTASLTISGLQTGDEATYWCASYERFGGGTRLTVLS
With B2 the IC50 [1] was 0.13 µg/mL, the IC80 [1] was > 50 µg/mL and the MPI [1] was 62. For the same binder, the IC50 [2] was 0.133 µg/mL, the IC80 [2] was 0.548 µg/mL and the MPI [2] was 100. For the same binder, the IC50 [3] was 0.004 µg/mL, the IC80 [3] was 0.014 µg/mL and the MPI [3] was 100. It also gave an IC50 [4] of 0.007 µg/mL, an IC80 [4] of 0.023 µg/mL and an MPI [4] of 100. For the same binder, the IC50 [5] was 0.013 µg/mL, the IC80 [5] was 0.043 µg/mL and the MPI [5] was 100. The IC50 [6] was 0.18 µg/mL, the IC80 [6] was 0.849 µg/mL and the MPI [6] was 99. It also gave an IC50 [7] of 0.075 µg/mL, an IC80 [7] of 0.483 µg/mL and an MPI [7] of 100. It also gave an IC50 [8] of 0.087 µg/mL, an IC80 [8] of 0.43 µg/mL and an MPI [8] of 100. The IC50 [9] was 0.172 µg/mL, the IC80 [9] was 0.797 µg/mL and the MPI [9] was 100. For the same binder, the IC50 [10] was 0.045 µg/mL, the IC80 [10] was 0.205 µg/mL and the MPI [10] was 100. The IC50 [11] was 0.297 µg/mL, the IC80 [11] was 1.38 µg/mL and the MPI [11] was 100. The IC50 [12] was 0.221 µg/mL, the IC80 [12] was 0.809 µg/mL and the MPI [12] was 100. The IC50 [13] was 1.59 µg/mL, the IC80 [13] was 11.6 µg/mL and the MPI [13] was 91. The IC50 [14] was > 50 µg/mL, the IC80 [14] was > 50 µg/mL and the MPI [14] was 2. For the same binder, the IC50 [15] was > 50 µg/mL, the IC80 [15] was > 50 µg/mL and the MPI [15] was 0. For the same binder, the IC50 [16] was 45.4 µg/mL, the IC80 [16] was > 50 µg/mL and the MPI [16] was 51. The IC50 [17] was > 50 µg/mL, the IC80 [17] was > 50 µg/mL and the MPI [17] was 20. For the same binder, the IC50 [18] was 7.47 µg/mL, the IC80 [18] was > 50 µg/mL and the MPI [18] was 63. For the same binder, the IC50 [19] was > 50 µg/mL, the IC80 [19] was > 50 µg/mL and the MPI [19] was 18. For the same binder, the IC50 [20] was > 50 µg/mL, the IC80 [20] was > 50 µg/mL and the MPI [20] was 0. For the same binder, the IC50 [21] was 0.017 µg/mL, the IC80 [21] was 0.053 µg/mL and the MPI [21] was 100. The IC50 [22] was > 50 µg/mL, the IC80 [22] was > 50 µg/mL and the MPI [22] was 8. The IC50 [23] was 0.261 µg/mL, the IC80 [23] was 0.919 µg/mL and the MPI [23] was 100. The IC50 [24] was > 50 µg/mL, the IC80 [24] was > 50 µg/mL and the MPI [24] was 24. The IC50 [25] was 0.284 µg/mL, the IC80 [25] was 2.08 µg/mL and the MPI [25] was 100. For the same binder, the IC50 [26] was 0.007 µg/mL, the IC80 [26] was 0.022 µg/mL and the MPI [26] was 100. For the same binder, the IC50 [27] was 0.027 µg/mL, the IC80 [27] was 0.092 µg/mL and the MPI [27] was 100. It also gave an IC50 [28] of 1.98 µg/mL, an IC80 [28] of 10.7 µg/mL and an MPI [28] of 97. For the same binder, the IC50 [29] was 0.026 µg/mL, the IC80 [29] was 0.12 µg/mL and the MPI [29] was 100. It also gave an IC50 [30] of 0.143 µg/mL, an IC80 [30] of 0.68 µg/mL and an MPI [30] of 100. The IC50 [31] was 0.127 µg/mL, the IC80 [31] was 0.855 µg/mL and the MPI [31] was 100. The IC50 [32] was > 50 µg/mL, the IC80 [32] was > 50 µg/mL and the MPI [32] was 14.

— patent US20230002480A1
